Results as given in PMC12554172, “Systematic analysis of the RGS2 degron reveals characteristics of substrate recognition by the F-box protein FBXO44” (The Journal of Biological Chemistry, 2025).

Molecular target: RGS2^5–16 peptide (RGS2 degron, Met^5–Met^16)
Test: SPR; Biacore X100; RGS2^5–16 peptide amine-coupled to a CM5 chip (2498 RU), blank reference cell; FBXO44^FBA as analyte, 0.29 to 75 μM, contact time 60 s, regeneration 50 mM NaOH; RU at equilibrium, nonlinear fit of saturation binding; SEC/SPR buffer 20 mM Tris–HCl pH 7.2, 200 mM NaCl

B1: FLAG-tagged FBXO44 FBA domain (FBXO44^FBA) (domain or fragment)
chain: FYFLRSLHRNLLHNPCAEEGFEFWSLDVNGGDEWKVEDLSRDQRKEFPNDQVKKYFVTSYYTCLKSQVVDLKAEGYWEELMDTTRPDIEVKDWFAARPDCGSKYQLCVQLLSSAHAPLGTFQPDPATIQQKSDAKWREVSHTFSNYPPGVRYIWFQHGGVDTHYWAGWYGPRVTNSSITIGP
Kd: 2100 nM
